# In the RNAGym collection of RNA variant scans (doi:10.1073/pnas.2313332121):
# Fewer inactive variants are shown than the library holds.
# B1: TPR 5TU (parent)
# chain: GGAUCUUCUCGAUCUAACAAAAAAGACAAAUCUGCCACAAAGCUUGAGAGCAUCUUCGGAUGCAGAGGCGGCAGCCUUCGGUGGCGCGAUAGCGCCAACGUUCUCAACUAUGACACGCAAAACGCGUGCUCCGUUGAAUGGAGUUUAUCAUG
# Variants of: B1
# Assay: polymerase ribozyme fitness, log enrichment relative to wild type (log ratio); higher = more active; in vitro selection for triplet polymerase activity
# Outline: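 Fitness compares each genotype's enrichment to that of the wild type on a logarithmic scale, averaging replicates with inverse-variance weights. The logarithm is base 2. Enrichment came from Illumina sequencing of input and output libraries after one triplicate round of in vitro selection, which included frozen incubation at −7 °C, of PCR-built, transcribed mutant libraries of each subunit of a heterodimeric triplet polymerase ribozyme. Only genotypes with ≥10 input reads and ≥1 read per output were kept.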
row,Variant,polymerase ribozyme fitness (log ratio)
1,A39U U53A G86U,-3.7
2,A39U U77A G81C C87U C95U A98C G126U G136C,≤ -4.2
3,A37U A39G A49U G81C A91C G94A U146A,≤ -4.2
4,A37C A40G C57U A73C C93U,≤ -4.2
5,C38U C57A C87A,≤ -4.2
6,A37C C63G C99A U111C C114U A119U,≤ -4.2
7,C38U G65C G70U C85G U111G A115U U127G G140C U146G,≤ -4.2
8,C38G G68C C85G G126A U139G G140A C149G,≤ -4.2
9,A39G C85U U101C,-2.58
10,C38U G42A C75G A91G C95U C105U A113U C118G,≤ -4.2
11,A37G G48C A52C U56A C79A U104A U109A C116G C149G G152A,≤ -4.2
12,A39G A91G,-3.4
13,C36U U56A C76U G86A A115C,-3.51
14,C38U A41C C132U,-1.49
15,A39G U55G G83C G88C G100C G140U G141A U145G,≤ -4.2
16,C38G U55A C96A A150G,-2.63
17,C38U C54A C57G G143A,-4.08
18,C38G U45G U56A C93G C123A U127G,≤ -4.2
19,C38A G70A C85G U127C,≤ -4.2
20,A37U G50C U78C A98U U134C,≤ -4.2
21,C38U C96A G141A,-0.0442
22,A39G C96U,-2.18
23,C38U G48A A60C C72G C96A C99U C114G U139G U148G,≤ -4.2
24,A37G C131U U134C,-1.56

row,Variant,polymerase ribozyme fitness (log ratio)
1,A39U U55A G59U G117A A121U,-1.11
2,A37C C76A,-3.34
3,A40C A49G U55A G80A C85U G140C,≤ -4.2
4,A37U A60G A91G G143C,≤ -4.2
5,A39U A40C C79A U82C C96A U109G A119U G143A,≤ -4.2
6,C38U C149U A150U,-1.23
7,A37C A39C C95U G133U,≤ -4.2
8,A37C G83A,-0.102
9,C38U A39C C95U,-2.34
10,A37G A41C U53C C85U U104C G128C C149G,≤ -4.2
11,C38G C95A A150U,-0.802
12,C38U G58A G86A C93U C96A C131A,-2.97
13,C38A A91G,-3.39
14,C38G C51U,-0.547
15,C36U C96U A142C,-2.88
16,C38A U53A C87U,-1.39
17,A39C C87U,-2.12
18,A39U U82A A106G,-1.88
19,C38A G83U C96G U144A,-0.619
20,C38G C85G C105U A121U G124A,-2.25
21,C38A C95G C99U A138G,≤ -4.2
22,A37C A41U G48U A73U C93G C99U G140A,≤ -4.2
23,C38A G50C C96A,-4.12
24,A39G C99G C108U,≤ -4.2

row,Variant,polymerase ribozyme fitness (log ratio)
1,A39U G80A C123G,-2.65
2,A39G C87U,-2.33
3,A37C C54G G92U A97U A119U,≤ -4.2
4,C38U C76U C85G C96A C103A C114U C132U,-4.19
5,A39C C105U G124A,-2.08
6,A37G C51G A52G U53A A89C G136C A138U,≤ -4.2
7,A37C A41U A52C C118A,-3.42
8,C38G C57A A115C U144G,-1.02
9,A39U G126C,-0.865
10,A39C A40G A49C G80U G86U A106C A150C,≤ -4.2
11,A37C A41U C93U C118A,-2.93
12,A37C G70C C87A C125U,≤ -4.2
13,C38G C51U C95A C99G A106U C125A U134A,≤ -4.2
14,A39G G83A G117U A120C G152U,-4.11
15,A37U A89U U146A,-1.62
16,A39U C99A,-3.7
17,C38A C69A G133C A150C,≤ -4.2
18,C38A A89G C95G G124A,-2.76
19,A37C G86U C87U C108U A113G G117A,≤ -4.2
20,C38U,0.0316
21,C38A,-0.151
22,C38G,-0.296
23,C38U C105G G141U,-1.54
24,A37G C38G G83U C118A C123U,-4.05

row,Variant,polymerase ribozyme fitness (log ratio)
1,C38U G71A G81A G83U C93A,≤ -4.2
2,C38G A49U U55A C87A G126A G143C,≤ -4.2
3,C38U G46U G84A U127G G143C,≤ -4.2
4,A37C G70U C96G,≤ -4.2
5,C38A G58A C96G C129G G143A,-2.67
6,A37U U55A A91G A98U U148A,≤ -4.2
7,C38G C85A G94U C103G,-2.31
8,C38A A49C G67A C79G,≤ -4.2
9,A37U G70C C85U G92A,≤ -4.2
10,C38U A47U A121U U135A A142U,-2.42
11,C38U A73G U101A,-0.277
12,C38A U56A G128U,-3.69
13,C38A C76U,-0.21
14,A39C C87U G94U U101C A147U,≤ -4.2
15,A37G C85U G88C C95U,≤ -4.2
16,A37C U127G,-3.83
17,A39U A60U G70A,≤ -4.2
18,A37G U56A A97G,-2.85
19,C38G G50C G65U G84A C96U C99U U111G G143A,≤ -4.2
20,A39G G42C A64U G84C C85U C103G C108U G117C A147G,≤ -4.2
21,A37G C51U,-2.54
22,A39G G50C G65C A110G A120G,≤ -4.2
23,A37C U56A,-0.806
24,A37G A60G C87U,-1.88

row,Variant,polymerase ribozyme fitness (log ratio)
1,A39C C76G A137C,≤ -4.2
2,C38U A47C C93A C125U,-3.16
3,C38U G70A C95A C99U A107U,≤ -4.2
4,A39U U61G C85U C93U U134A,≤ -4.2
5,A39G A47C C72A C103G C116U G128A,≤ -4.2
6,C38A G50U,-0.722
7,C38U G83C C132A,≤ -4.2
8,C36U U55G C118G,-1.72
9,A37G A41G C79A G92U C95U C123U,≤ -4.2
10,C38U C57G G58A C116A A138G,≤ -4.2
11,A39U U55G G58U U78G C85U U90C C105A G136U A142C,≤ -4.2
12,C38U C57A G74U G83C,≤ -4.2
13,A39C G84A C85G U90G A91G U111A,≤ -4.2
14,C38U C105U C118G U139G,-1.24
15,A39U A52G C79G G84C C108U,≤ -4.2
16,C38A C85A,-2.61
17,C38U U134G,-2.53
18,C38A C95A U135A,-1.76
19,A39U U53A,-2.91
20,A37U C79U C116A,-4.15
21,A37G C54U G59C C69U,-1.86
22,C38U G59A A60C,-1.48
23,C38A U90A G92A C103G G117U A138G,≤ -4.2
24,A39C A142U,-3.34

row,Variant,polymerase ribozyme fitness (log ratio)
1,A37C A52U C132U,-4.13
2,C38U A66G G92U C108A G136U,≤ -4.2
3,A39C G48C G88U A97G U144G,≤ -4.2
4,A37G A60U G81A A97C A137G,-4.19
5,A39C G50C G59C A97U C129A C149U,≤ -4.2
6,A37U A52C C116G,-2.94
7,C38U G81A C87G C95U C96A A97G A138C G141U,≤ -4.2
8,A40C A41C A107U C108G G117C,≤ -4.2
9,A37U U146G,-2.19
10,A40C A47C A60C G71U A91C C93U,≤ -4.2
11,A39G A115C,-3.17
12,A39C A49G,-3.48
13,A39C G81A G94U A106G A110C G140U,-4.04
14,C38U C63U A73G C118U A150G,-2.88
15,A39G U55C U56A C116U U139G U144G,-2.27
16,A39U C63U C75G C76A C87G C105U C129U G143C,≤ -4.2
17,A39U G141U,-1.56
18,A37G A52G C69A U144G,-4.11
19,A39U A91U,≤ -4.2
20,C38G G74C C87U,≤ -4.2
21,C38U C85G,-3.44
22,A39U U144C,-2.52
23,A39G U109C U144A,-3.59
24,C38U U55A,-0.159

row,Variant,polymerase ribozyme fitness (log ratio)
1,C38G A98U A122C G141C,-2.06
2,A37U G42C,-3.9
3,A39G A47G G83A A142G,≤ -4.2
4,A39C A91C A137G,≤ -4.2
5,A39U A113C,-4.11
6,C38A C76G G92C,≤ -4.2
7,C38U C95A C103U G143A,-3.18
8,C38U A52G A110C,≤ -4.2
9,C36U G92C,-1.37
10,C38U A40G,-2.26
11,C38A U56A A137G,-2.08
12,C38A G58A A60G C93U C95A C125G,-3.67
13,A37C G58A C87A U101G G124C A150U,≤ -4.2
14,A39C G58C A97U A98C C125U,-3.95
15,A39G C96U C125A,-2.58
16,A37G U61G C93U A115C,-4.18
17,C36U G46A A64G G80C,≤ -4.2
18,A39U C93U,-3.36
19,C38G A66G U77G G83U A107U G128C A137U,≤ -4.2
20,C38G C96A C114U,-2.91
21,C38U G50A,-2.15
22,C38U C63G A97U G143C,-3.67
23,A39G C103G U144A,≤ -4.2
